Assay results as given in paper PMC5413349.

Columns and labels:
[1] = target: native dynactin complex purified from pig brain (pig (purified from pig brain))
[2] = target: microtubules polymerised from porcine tubulin (porcine); assay: single-molecule TIRF microscopy of binding to microtubules; dynein (100 nM in the assembly mix, 1 in 20 dilution) alone or with a 20x or 300x molar excess of LIS1 on immobilised taxol/GMPCPP-stabilised microtubules, without EB1 and dynactin; 2.5 mM ATP
[3] = target: human cytoplasmic dynein-1 complex (recombinant, SNAPf tag on the heavy chain) (human) (UniProt Q14204)
[4] = target: human cytoplasmic dynein-1 complex (recombinant, SNAPf tag on the heavy chain) (human) (UniProt Q14204); assay: single-molecule TIRF co-localisation on microtubules; Alexa647-BICD2N (10x) and TMR-dynein (20 nM in the assembly mix, 1 in 2 dilution) with EB1, dynactin (2x) and LIS1 (20x) on dynamic microtubules

Chain of SNAPf::BICD2N (residues 1-400 of mouse Bicaudal-D2 with an N-terminal SNAPf tag) (Q921C5 1-400): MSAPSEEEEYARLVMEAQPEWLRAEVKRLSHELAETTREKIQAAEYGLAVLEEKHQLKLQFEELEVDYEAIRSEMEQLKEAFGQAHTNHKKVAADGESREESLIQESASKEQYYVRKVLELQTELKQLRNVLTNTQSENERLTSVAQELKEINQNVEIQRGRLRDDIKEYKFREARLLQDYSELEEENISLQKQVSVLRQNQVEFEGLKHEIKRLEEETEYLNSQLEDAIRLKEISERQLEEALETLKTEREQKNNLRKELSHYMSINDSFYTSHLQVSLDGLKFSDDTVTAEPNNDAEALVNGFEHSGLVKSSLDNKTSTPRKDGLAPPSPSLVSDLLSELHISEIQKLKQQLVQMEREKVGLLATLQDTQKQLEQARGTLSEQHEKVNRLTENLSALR

plus-end tracking of Alexa647-dynein on growing microtubules with EB1 and dynactin (TIRF): maximal duration of tracking events [1]	plus-end tracking of Alexa647-dynein on growing microtubules with EB1 and dynactin (TIRF): mean duration of tracking events [1]	fold increase of the landing rate on the lattice with a 300-fold molar excess of LIS1 against no LIS1 [2]	proportion of microtubule-associated dynein complexes in minus end-directed motion with dynactin and BICD2N, without (45%) and with LIS1 (70%) [3]	percent of plus-end tracking events of TMR-dynein with Alexa647-BICD2N signal [4]	Substance
9 s	4 s	3 fold	–	–	human cytoplasmic dynein-1 complex (recombinant, SNAPf tag on the heavy chain) (from UniProt Q14204 1-4646; O43237-1 1-492; P63172 1-113; P63167 1-89; Q9NP97-1 1-96)
–	–	–	70%	40%	SNAPf::BICD2N (residues 1-400 of mouse Bicaudal-D2 with an N-terminal SNAPf tag) (from UniProt Q921C5 1-400) (domain or fragment)
